# B1: Adenosylhomocysteinase (Homo sapiens), P23526 (protein)
# chain: MSDKLPYKVADIGLAAWGRKALDIAENEMPGLMRMRERYSASKPLKGARIAGCLHMTVETAVLIETLVTLGAEVQWSSCNIFSTQDHAAAAIAKAGIPVYAWKGETDEEYLWCIEQTLYFKDGPLNMILDDGGDLTNLIHTKYPQLLPGIRGISEETTTGVHNLYKMMANGILKVPAINVNDSVTKSKFDNLYGCRESLIDGIKRATDVMIAGKVAVVAGYGDVGKGCAQALRGFGARVIITEIDPINALQAAMEGYEVTTMDEACQEGNIFVTTTGCIDIILGRHFEQMKDDAIVCNIGHFDVEIDVKWLNENAVEKVNIKPQVDRYRLKNGRRIILLAEGRLVNLGCAMGHPSFVMSNSFTNQVMAQIELWTHPDKYPVGVHFLPKKLDEAVAEAHLGKLNVKLTKLTEKQAQYLGMSCDGPFKPDHYRY
# What was measured:
# [1] = substrate: O=c1[nH]cnc2c1ncn2[C@@H]1O[C@H](CO)[C@@H](O)[C@H]1O; test: (§1) Enzyme kinetic constant for S-adenosyl-L-homocysteine hydrolase
# [2] = substrate: Nc1nc2c(ncn2[C@@H]2O[C@H](CO)[C@@H](O)[C@H]2O)c(=O)[nH]1; test: as §1
# [3] = substrate: Nc1cc(-c2cncn2C2O[C@H](CO)[C@@H](O)[C@H]2O)ncn1; test: as §1
# [4] = substrate: Nc1ncnc2c1ncn2[C@@H]1O[C@H](CO)[C@@H](O)[C@H]1O; test: as §1
# [5] = substrate: OC[C@H]1OC(n2cncc2-c2cc(O)ncn2)[C@H](O)[C@@H]1O; test: as §1
# [6] = substrate: Nc1nc(O)cc(-c2cncn2C2O[C@H](CO)[C@@H](O)[C@H]2O)n1; test: Enzyme kinetic constant for S-adenosyl-L-homocysteine hydrolase in hydrolysis direction
# [7] = substrate: Nc1nc(O)cc(-c2cncn2C2O[C@H](CO)[C@@H](O)[C@H]2O)n1; test: Enzyme kinetic constant for S-adenosyl-L-homocysteine hydrolase; Not a substrate
protein,measurement,setting,value
B1,Km,[1],2.5 µM
same,Km,[2],844 µM
same,Km,[3],54.4 µM
same,Km,[4],0.82 µM
same,Km,[5],421 µM
same,Km,[6],6.6 µM
same,Km,[7],Not a substrate
